Publication PMC11584650, “An inhibitory segment within G-patch activators tunes Prp43-ATPase activity during ribosome assembly”

Legend:
Prp43 = Prp43 (Saccharomyces cerevisiae, UniProt P53131 1-767); test: fluorescence polarization; 5 mM Mg2+, no nucleotide listed; 50 mM HEPES pH 7.5, 50 mM KCl, 5 mM MgCl2, 0.05% Tween-20, 1 mM DTT; 5 nM Cy5-U12 RNA, protein 20 pM to 2.5 uM; temperature not stated; details: protein: recombinant; tags: His6 (HRV site; pET47b); single strand
Prp43;Pxr1M = Prp43;Pxr1M (Saccharomyces cerevisiae;Saccharomyces …, UniProt P53131;P53335 1-767;72-137, |); test: fluorescence polarization; 5 mM Mg2+, no nucleotide listed; affinity unaltered vs Prp43 alone; 50 mM HEPES pH 7.5, 50 mM KCl, 5 mM MgCl2, 0.05% Tween-20, 1 mM DTT; 5 nM Cy5-U12 RNA, protein 20 pM to 2.5 uM; temperature not stated; details: protein: recombinant;recombinant; tags: His6 (HRV site; pET47b);GST (pGEX-6P-1; copies: 1;1; single strand
Prp43;Tma23M = Prp43;Tma23M (Saccharomyces cerevisiae;Saccharomyces …, UniProt P53131;Q03525 1-767;43-111, |); test: as above; details: protein: recombinant;recombinant; tags: His6 (HRV site; pET47b);GST (pGEX-6P-1; copies: 1;1; single strand

Measured: binding result

Prp43;Pxr1M, sequence (P53131 whole entry, chain 1 of 2): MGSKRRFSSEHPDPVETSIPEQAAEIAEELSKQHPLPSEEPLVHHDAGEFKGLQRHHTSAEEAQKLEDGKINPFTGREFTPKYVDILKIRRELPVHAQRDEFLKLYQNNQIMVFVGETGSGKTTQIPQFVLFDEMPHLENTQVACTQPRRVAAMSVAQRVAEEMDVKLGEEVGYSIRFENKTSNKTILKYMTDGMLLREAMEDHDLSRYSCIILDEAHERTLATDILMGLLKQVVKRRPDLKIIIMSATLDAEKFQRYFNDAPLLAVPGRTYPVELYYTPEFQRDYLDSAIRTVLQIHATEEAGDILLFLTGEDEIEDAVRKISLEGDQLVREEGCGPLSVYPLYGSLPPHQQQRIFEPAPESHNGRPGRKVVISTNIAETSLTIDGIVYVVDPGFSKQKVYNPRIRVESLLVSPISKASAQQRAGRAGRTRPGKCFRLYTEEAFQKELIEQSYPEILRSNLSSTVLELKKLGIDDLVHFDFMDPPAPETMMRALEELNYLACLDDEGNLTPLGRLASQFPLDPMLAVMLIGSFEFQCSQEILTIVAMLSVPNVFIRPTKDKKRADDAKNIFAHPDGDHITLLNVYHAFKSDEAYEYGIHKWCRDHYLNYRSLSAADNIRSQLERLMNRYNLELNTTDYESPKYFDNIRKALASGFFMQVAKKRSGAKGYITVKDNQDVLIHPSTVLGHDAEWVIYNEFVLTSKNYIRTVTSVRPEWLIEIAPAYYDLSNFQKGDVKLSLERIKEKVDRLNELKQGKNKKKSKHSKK
Prp43;Pxr1M, sequence (P53335 72-137, chain 2 of 2): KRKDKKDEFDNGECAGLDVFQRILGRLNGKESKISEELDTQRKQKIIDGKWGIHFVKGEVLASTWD
Prp43, sequence (P53131 whole entry): as the sequence (P53131 whole entry, chain 1 of 2) above
Prp43;Tma23M, sequence (P53131 whole entry, chain 1 of 2): as above
Prp43;Tma23M, sequence (Q03525 43-111, chain 2 of 2): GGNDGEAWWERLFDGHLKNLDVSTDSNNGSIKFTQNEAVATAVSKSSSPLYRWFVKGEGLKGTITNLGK

UUUUUUUUUUUU (ssRNA) [Cy5-U12 RNA]
binds: all assays above
